Measured values from paper PMC5435919 (Nucleic Acids Research, 2017).

Experiments:
SEC-MALS = molecular target: the molecule itself; experiment: SEC-MALS
atomic force microscopy = molecular target: the molecule itself; experiment: atomic force microscopy
DmGen (1-518)-His = molecular target: T1, DmGen (1-518)-His (Drosophila melanogaster, UniProt Q9VRJ0 1-518); experiment: EMSA
T1 sequence: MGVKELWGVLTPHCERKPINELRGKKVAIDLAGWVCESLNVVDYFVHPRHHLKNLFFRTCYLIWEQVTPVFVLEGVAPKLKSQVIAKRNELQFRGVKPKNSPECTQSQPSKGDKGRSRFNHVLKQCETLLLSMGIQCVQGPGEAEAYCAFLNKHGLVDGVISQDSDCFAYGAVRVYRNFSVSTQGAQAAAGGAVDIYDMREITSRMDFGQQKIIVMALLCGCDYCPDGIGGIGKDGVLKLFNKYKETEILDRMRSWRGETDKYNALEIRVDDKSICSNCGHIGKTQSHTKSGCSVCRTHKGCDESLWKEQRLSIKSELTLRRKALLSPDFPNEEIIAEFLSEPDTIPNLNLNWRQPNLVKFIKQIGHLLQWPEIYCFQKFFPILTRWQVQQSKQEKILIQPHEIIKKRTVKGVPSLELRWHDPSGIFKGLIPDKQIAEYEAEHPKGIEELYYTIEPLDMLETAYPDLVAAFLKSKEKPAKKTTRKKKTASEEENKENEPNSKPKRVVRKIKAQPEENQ

B1: truncated DmGen (1-518 aa) with C-terminal hexahistidine tag (enzyme, Drosophila, UniProt Q9VRJ0 1-518, looked up)
chain: MGVKELWGVLTPHCERKPINELRGKKVAIDLAGWVCESLNVVDYFVHPRHHLKNLFFRTCYLIWEQVTPVFVLEGVAPKLKSQVIAKRNELQFRGVKPKNSPECTQSQPSKGDKGRSRFNHVLKQCETLLLSMGIQCVQGPGEAEAYCAFLNKHGLVDGVISQDSDCFAYGAVRVYRNFSVSTQGAQAAAGGAVDIYDMREITSRMDFGQQKIIVMALLCGCDYCPDGIGGIGKDGVLKLFNKYKETEILDRMRSWRGETDKYNALEIRVDDKSICSNCGHIGKTQSHTKSGCSVCRTHKGCDESLWKEQRLSIKSELTLRRKALLSPDFPNEEIIAEFLSEPDTIPNLNLNWRQPNLVKFIKQIGHLLQWPEIYCFQKFFPILTRWQVQQSKQEKILIQPHEIIKKRTVKGVPSLELRWHDPSGIFKGLIPDKQIAEYEAEHPKGIEELYYTIEPLDMLETAYPDLVAAFLKSKEKPAKKTTRKKKTASEEENKENEPNSKPKRVVRKIKAQPEENQ
stoichiometry N (SEC-MALS): 2 | Kd (atomic force microscopy): ~100 nM

B2: linear dsDNA (oligos 888/888rc) (dsDNA)
DNA 1: GACGCTGCCGAATTCTGGCGTTAGGAGATACCGATAAGCTTCGGCTTAA
DNA 2: TTAAGCCGAAGCTTATCGGTATCTCCTAACGCCAGAATTCGGCAGCGTC
binding result (DmGen (1-518)-His): no binding
